Columns and labels:
[1] = molecular target: T1, Recombinant mouse TLR4 (R&D system) (mouse, UniProt Q9QUK6 26-638); experiment: SPR
T1 sequence (looked up): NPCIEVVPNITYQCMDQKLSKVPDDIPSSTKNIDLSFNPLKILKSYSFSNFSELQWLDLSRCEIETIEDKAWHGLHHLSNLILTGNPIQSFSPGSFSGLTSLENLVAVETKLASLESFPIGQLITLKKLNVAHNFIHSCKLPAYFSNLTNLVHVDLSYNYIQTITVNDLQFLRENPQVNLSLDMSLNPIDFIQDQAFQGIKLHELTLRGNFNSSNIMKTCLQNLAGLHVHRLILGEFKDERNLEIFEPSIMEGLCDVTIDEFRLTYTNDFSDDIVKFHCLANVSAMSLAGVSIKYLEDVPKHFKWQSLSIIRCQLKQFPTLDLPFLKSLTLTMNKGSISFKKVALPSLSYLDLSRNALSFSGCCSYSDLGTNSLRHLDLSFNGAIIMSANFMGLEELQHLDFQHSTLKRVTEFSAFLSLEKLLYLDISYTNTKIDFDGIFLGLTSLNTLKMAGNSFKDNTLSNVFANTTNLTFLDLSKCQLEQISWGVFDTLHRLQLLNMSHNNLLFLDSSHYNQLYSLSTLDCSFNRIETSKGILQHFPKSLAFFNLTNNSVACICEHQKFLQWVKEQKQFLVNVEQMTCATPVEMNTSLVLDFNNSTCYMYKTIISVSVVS

[2] = molecular target: T2, Recombinant mouse MD2 (Beijing ABIOCENTER) (mouse, UniProt Q9JHF9 19-160); experiment: SPR
T2 sequence (looked up): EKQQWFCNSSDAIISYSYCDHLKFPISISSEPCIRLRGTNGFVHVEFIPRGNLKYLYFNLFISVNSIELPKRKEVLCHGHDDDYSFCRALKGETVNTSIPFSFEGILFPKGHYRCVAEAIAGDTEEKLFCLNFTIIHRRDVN

- Kd [1]: 497 nM
- Kd [2]: 123 nM
B1: Mouse serum amyloid A1 (residues 19-122), recombinant (natural protein, UniProt P05366 19-122, looked up)
chain: GGFFSFVHEAFQGAGDMWRAYTDMKEANWKNSDKYFHARGNYDAAQRGPGGVWAAEKISDGREAFQEFFGRGHEDTIADQEANRHGRSGKDPNYYRPPGLPDKY

From article PMC8938331 (Molecular Metabolism, 2022)
